In patent publication US20220119534A1 (DRAGONFLY THERAPEUTICS, published 2022):
Residue numbers refer to the chain shown, from its start. In names and notes the source's numbering stands. Each block holds one binder with its values, some of them ahead of it.

Legend:
[1] = target: T1, mFc-hNKG2D (human, UniProt P26718 73-216); test: SPR Biacore 8K 37 C; mFc-hNKG2D captured on anti-mFc chip, TriNKET as analyte; 1:1 kinetic fit; un-oxidized control
T1 construct: extracellular domain; Made in house (Dragonfly Tx); the order of tag and ECD follows the name mFc-hNKG2D; also called mFc-tagged human NKG2D; not shown: mouse Fc tag
T1 sequence (looked up): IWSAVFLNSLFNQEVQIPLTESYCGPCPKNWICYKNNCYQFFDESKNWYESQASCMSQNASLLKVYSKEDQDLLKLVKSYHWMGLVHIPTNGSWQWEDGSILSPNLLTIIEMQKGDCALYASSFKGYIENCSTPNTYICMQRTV

[2] = target: T1, mFc-hNKG2D; test: SPR Biacore 8K 37 C; mFc-hNKG2D captured on anti-mFc chip, TriNKET as analyte; 1:1 kinetic fit; pH 5.0 control
[3] = target: T2, Human CLEC12A-His (human, UniProt Q5QGZ9 65-265); test: SPR Biacore 8K 37 C; TriNKET captured on anti-hFc chip, hCLEC12A-His as analyte; 1:1 fit; control sample, n=2
T2 construct: Recombinant soluble protein made in house (Dragonfly Tx); The hCLEC12A spot of the HuProt array is written under this molecule as well; also called hCLEC12A-His; hCLEC12A; not shown: His tag
T2 sequence: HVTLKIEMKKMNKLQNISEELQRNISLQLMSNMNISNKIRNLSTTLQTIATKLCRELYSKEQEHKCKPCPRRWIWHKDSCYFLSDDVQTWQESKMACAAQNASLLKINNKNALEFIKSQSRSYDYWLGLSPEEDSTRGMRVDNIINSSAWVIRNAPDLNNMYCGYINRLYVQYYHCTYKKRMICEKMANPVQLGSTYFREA

[4] = target: T1, mFc-hNKG2D; test: SPR Biacore 8K 37 C; mFc-hNKG2D captured on anti-mFc chip, TriNKET as analyte; steady state fit; after 0.02% H2O2 24 h
[5] = target: T3, Human CD16a V158 (FcγRIIIa V158) (human, UniProt P08637 17-208, biotinylated (site not stated)); test: SPR; biotinylated CD16a V158 captured on SA chip, TriNKET as analyte; 1:1 kinetic fit; after 4 wks 40 C in HST pH 6.0, n=3
T3 construct: V158 is the allele name in mature numbering; also called hCD16aV; hCD16a V158

[6] = target: T4, mFc-hNKG2D (recombinant mFc-tagged human NKG2D dimer) (human, UniProt P26718 73-216); test: SPR 37C, 1:1 kinetic fit, average
T4 construct: extracellular domain; Made in house; not shown: mouse Fc tag
T4 sequence (looked up): T1 sequence (looked up)

[7] = target: T5, human CLEC12A on cells (HL60, PL21, Ba/F3-hCLEC12A) (human, UniProt Q5QGZ9 1-265); test: flow cytometry, PL21 cells
T5 construct: Endogenous on the AML lines HL60 and PL21; brought into mouse Ba/F3 cells by retroviral transduction; The cell line stands under assay; also called CLL-1
T5 sequence: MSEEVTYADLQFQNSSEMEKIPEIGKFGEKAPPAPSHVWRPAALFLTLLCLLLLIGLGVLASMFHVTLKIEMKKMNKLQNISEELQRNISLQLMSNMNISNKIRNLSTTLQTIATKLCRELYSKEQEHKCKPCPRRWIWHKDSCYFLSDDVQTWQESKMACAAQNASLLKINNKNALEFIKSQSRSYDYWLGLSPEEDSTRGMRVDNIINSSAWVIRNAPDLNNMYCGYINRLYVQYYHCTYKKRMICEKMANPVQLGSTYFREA

[8] = target: T5, human CLEC12A on cells (HL60, PL21, …); test: flow cytometry, PL21 cells; remark: listed apart in the source
[9] = target: T5, human CLEC12A on cells (HL60, PL21, …); test: flow cytometry, Ba/F3-hCLEC12A cells
[10] = target: T6, mFc-hNKG2D (human, UniProt P26718 73-216); test: SPR; control sample (CST pH 7.0 study)
T6 construct: extracellular domain; Recombinant mFc-tagged NKG2D dimer, made in house; also called human NKG2D; not shown: mouse Fc tag
T6 sequence (looked up): T1 sequence (looked up)

[11] = target: T7, recombinant human CLEC12A-His (human, UniProt Q5QGZ9 65-265); test: SPR
T7 construct: also called hCLEC12A-His; hCLEC12A
T7 sequence: T2 sequence

[12] = target: T8, human CLEC12A-K244Q-His (human, UniProt Q5QGZ9 65-265); test: SPR
T8 construct: Polymorphic variant; also called hCLEC12A-K244Q; CLEC12A (Q244)
T8 chain: T2 sequence with K180Q

[13] = target: T9, recombinant human CD16a F158 (human, UniProt P08637 17-208); test: SPR 25C
T9 construct: also called FcγRIIIa F158

[14] = target: T10, recombinant human CD16a V158 (human, UniProt P08637 17-208, biotinylated); test: SPR 25C
T10 construct: also called FcγRIIIa V158; hCD16aV

[15] = target: T11, recombinant cynomolgus FcRn (cynomolgus monkey, UniProt Q8SPV9 24-297; Q8SPW0 21-119); test: SPR 25C, pH 6.0, steady state; pH 6.0; first replicate
T11 construct: also called cFcRn; cyno FcRn
T11 sequence (Q8SPV9 24-297 limits assumed, chain 1 of 2): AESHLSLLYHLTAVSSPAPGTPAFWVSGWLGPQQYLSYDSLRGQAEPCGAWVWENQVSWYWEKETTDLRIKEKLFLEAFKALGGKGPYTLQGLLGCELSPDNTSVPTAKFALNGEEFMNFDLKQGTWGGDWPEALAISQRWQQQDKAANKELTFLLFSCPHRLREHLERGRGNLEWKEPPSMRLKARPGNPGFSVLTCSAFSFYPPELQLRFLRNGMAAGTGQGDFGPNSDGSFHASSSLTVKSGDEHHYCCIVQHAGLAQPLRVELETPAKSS
T11 sequence (Q8SPW0 21-119 limits assumed, chain 2 of 2): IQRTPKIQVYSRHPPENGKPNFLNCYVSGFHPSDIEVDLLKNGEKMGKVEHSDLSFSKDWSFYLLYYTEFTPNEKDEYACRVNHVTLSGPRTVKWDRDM

T3 sequence (P08637 17-208 F176V limits assumed): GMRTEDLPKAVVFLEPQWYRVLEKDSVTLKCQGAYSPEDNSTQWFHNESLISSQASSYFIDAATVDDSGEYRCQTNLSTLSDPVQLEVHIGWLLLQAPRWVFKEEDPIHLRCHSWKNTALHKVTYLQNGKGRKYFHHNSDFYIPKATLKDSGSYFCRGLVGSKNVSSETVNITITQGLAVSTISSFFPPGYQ
T10 sequence (P08637 17-208 F176V limits assumed): as above
T9 sequence (P08637 17-208 limits assumed): as the sequence (P08637 17-208 F176V limits assumed) above, with V160F counted along it

Kd [1]: 750 nM | koff [1]: 0.107 s⁻¹ | kon [1]: 143000 M⁻¹ s⁻¹ | Kd [2]: 678 nM | koff [2]: 0.128 s⁻¹ | kon [2]: 189000 M⁻¹ s⁻¹ | Kd [3]: 0.98 nM | koff [3]: 0.000735 s⁻¹ | kon [3]: 750000 M⁻¹ s⁻¹ | Kd [4]: 732 nM | Kd [5]: 201 nM | koff [5]: 0.0165 s⁻¹ | kon [5]: 82400 M⁻¹ s⁻¹
B1: F3'-1602 TriNKET (bispecific antibody, human IgG1, kappa)
chain: QLQLQESGPGLVKPSETLSLTCTVSGFSLTNYGLHWIRQPPGKCLEWIGVIWSGGKTDYNPSLKSRVTISKDTSKNQFSLKLSSVQAADTAVYYCAKYDYDDSLDYWGQGTLVTVSSGGGGSGGGGSGGGGSGGGGSDIQMTQSPSSLSASVGDRVTITCHASQNINFWLSWYQQKPGKAPKLLIYEASNLHTGVPSRFSGSGSGTRFTLTISSLQPEDIATYYCQQSHSYPLTFGCGTKLEIKGSDKTHTCPPCPAPELLGGPSVFLFPPKPKDTLMISRTPEVTCVVVDVSHEDPEVKFNWYVDGVEVHNAKTKPREEQYNSTYRVVSVLTVLHQDWLNGKEYKCKVSNKALPAPIEKTISKAKGQPREPRVYTLPPCRDELTKNQVSLTCLVKGFYPSDIAVEWESNGQPENNYKTTPPVLVSDGSFTLYSKLTVDKSRWQQGNVFSCSVMHEALHNHYTQKSLSLSPG
heavy: EVQLVESGGGLVKPGGSLRLSCAASGFTFSSYSMNWVRQAPGKGLEWVSSISSSSSYIYYADSVKGRFTISRDNAKNSLYLQMNSLRAEDTAVYYCARGAPIGAAAGWFDPWGQGTLVTVSSASTKGPSVFPLAPSSKSTSGGTAALGCLVKDYFPEPVTVSWNSGALTSGVHTFPAVLQSSGLYSLSSVVTVPSSSLGTQTYICNVNHKPSNTKVDKKVEPKSCDKTHTCPPCPAPELLGGPSVFLFPPKPKDTLMISRTPEVTCVVVDVSHEDPEVKFNWYVDGVEVHNAKTKPREEQYNSTYRVVSVLTVLHQDWLNGKEYKCKVSNKALPAPIEKTISKAKGQPREPQVCTLPPSRDELTENQVSLTCLVKGFYPSDIAVEWESNGQPENNYKTTPPVLDSDGSFFLYSWLTVDKSRWQQGNVFSCSVMHEALHNHYTQKSLSLSPG
light: DIQMTQSPSSVSASVGDRVTITCRASQGISSWLAWYQQKPGKAPKLLIYAASSLQSGVPSRFSGSGSGTDFTLTISSLQPEDFATYYCQQGVSFPRTFGGGTKVEIKRTVAAPSVFIFPPSDEQLKSGTASVVCLLNNFYPREAKVQWKVDNALQSGNSQESVTEQDSKDSTYSLSSTLTLSKADYEKHKVYACEVTHQGLSSPVTKSFNRGEC
notes: Trispecific F3' format: CLEC12A scFv-Fc paired with NKG2D Fab-Fc; Stressed and control samples of the stability studies are the same molecule; also called AB0237

Kd [6]: 881 nM | koff [6]: 0.143 s⁻¹ | kon [6]: 162000 M⁻¹ s⁻¹
B2: AB0089 TriNKET (bispecific antibody, human IgG1, kappa)
chain: B1 chain with S53V, K56A, K71V, Y98G, D101G, S103T, R207D, I220F
heavy: B1 heavy
light: B1 light
notes: F3' format heterodimer of three chains; human IgG1 Fc with EW-RVT and Y349C/S354C mutations; also called AB0089 Lot AB0089-002; CLEC12A TriNKET AB0089

EC50 [7]: 0.37 nM | FOB (fold over background) [7]: 12 fold | EC50 [8]: 0.43 nM | EC50 [9]: 0.91 nM | Kd [10]: 588 nM | koff [10]: 0.122 s⁻¹ | kon [10]: 208000 M⁻¹ s⁻¹
B3: AB0192 TriNKET (other)
chain: EVQLVESGGGVVQPGGSLRLSCAASGFTFNAFGMHWVRQAPGKCLEWVAFISSGSTSIYYANTVKGRFTISRDNSKNTLYLQMNSLRAEDTAVYYCARDGYPTGGAMDYWGQGTSVTVSSGGGGSGGGGSGGGGSGGGGSDIQMTQSPSSLSASVGDRVTITCKASQDIYNYLSWFQQKPGKAPKPLIYRANILVSGVPSRFSGSGSGQDYTFTISSLQPEDIATYYCLQFDAFPFTFGCGTKLEIKGSDKTHTCPPCPAPELLGGPSVFLFPPKPKDTLMISRTPEVTCVVVDVSHEDPEVKFNWYVDGVEVHNAKTKPREEQYNSTYRVVSVLTVLHQDWLNGKEYKCKVSNKALPAPIEKTISKAKGQPREPRVYTLPPCRDELTKNQVSLTCLVKGFYPSDIAVEWESNGQPENNYKTTPPVLVSDGSFTLYSKLTVDKSRWQQGNVFSCSVMHEALHNHYTQKSLSLSPG
heavy: B1 heavy
light: B1 light
notes: the condition stands under assay; also called AB0192 Lot AB0192-005

Kd [11]: 0.6 nM | koff [11]: 0.000496 s⁻¹ | kon [11]: 826000 M⁻¹ s⁻¹ | Kd [12]: 0.77 nM | koff [12]: 0.000436 s⁻¹ | kon [12]: 565000 M⁻¹ s⁻¹ | fold difference in affinity vs trastuzumab [13]: ≤ 3 fold | fold difference in affinity vs trastuzumab [14]: ≤ 3 fold | Kd [15]: 1100 nM
B4: F3'-1602 TriNKET (other)
chain: B1 chain
heavy: B1 heavy
light: B1 light
notes: CLEC12A scFv-Fc, NKG2D A49MI Fab-Fc, human IgG1 Fc; also called AB0237
